# Test results: paper PMC8298264, “Function of cofactor Akirin2 in the regulation of gene expression in model human neutrophil-like HL60 cells” (Bioscience Reports, 2021)
# B1: sp¦O75534¦CSDE1_HUMAN (protein, UniProt O75534 1-798, looked up)
# Cold shock domain-containing …: MSFDPNLLHNNGHNGYPNGTSAALRETGVIEKLLTSYGFIQCSERQARLFFHCSQYNGNLQDLKVGDDVEFEVSSDRRTGKPIAVKLVKIKQEILPEERMNGQVVCAVPHNLESKSPAAPGQSPTGSVCYERNGEVFYLTYTPEDVEGNVQLETGDKINFVIDNNKHTGAVSARNIMLLKKKQARCQGVVCAMKEAFGFIERGDVVKEIFFHYSEFKGDLETLQPGDDVEFTIKDRNGKEVATDVRLLPQGTVIFEDISIEHFEGTVTKVIPKVPSKNQNDPLPGRIKVDFVIPKELPFGDKDTKSKVTLLEGDHVRFNISTDRRDKLERATNIEVLSNTFQFTNEAREMGVIAAMRDGFGFIKCVDRDVRMFFHFSEILDGNQLHIADEVEFTVVPDMLSAQRNHAIRIKKLPKGTVSFHSHSDHRFLGTVEKEATFSNPKTTSPNKGKEKEAEDGIIAYDDCGVKLTIAFQAKDVEGSTSPQIGDKVEFSISDKQRPGQQVATCVRLLGRNSNSKRLLGYVATLKDNFGFIETANHDKEIFFHYSEFSGDVDSLELGDMVEYSLSKGKGNKVSAEKVNKTHSVNGITEEADPTIYSGKVIRPLRSVDPTQTEYQGMIEIVEEGDMKGEVYPFGIVGMANKGDCLQKGESVKFQLCVLGQNAQTMAYNITPLRRATVECVKDQFGFINYEVGDSKKLFFHVKEVQDGIELQAGDEVEFSVILNQRTGKCSACNVWRVCEGPKAVAAPRPDRLVNRLKNITLDDASAPRLMVLRQPRGPDNSMGFGAERKIRQAGVID
# B2: sp¦P24534¦EF1B_HUMAN (protein, UniProt P24534 2-225, looked up)
# Elongation factor 1-beta: GFGDLKSPAGLQVLNDYLADKSYIEGYVPSQADVAVFEAVSSPPPADLCHALRWYNHIKSYEKEKASLPGVKKALGKYGPADVEDTTGSGATDSKDDDDIDLFGSDDEEESEEAKRLREERLAQYESKKAKKPALVAKSSILLDVKPWDDETDMAKLEECVRSIQADGLVWGSSKLVPVGYGIKKLQIQCVVEDDKVGTDMLEEQITAFEDYVQSMDVAAFNKI
# B3: sp¦O95816¦BAG2_HUMAN (protein, UniProt O95816 2-211, looked up)
# BAG family molecular …: AQAKINAKANEGRFCRSSSMADRSSRLLESLDQLELRVEALREAATAVEQEKEILLEMIHSIQNSQDMRQISDGEREELNLTANRLMGRTLTVEVSVETIRNPQQQESLKHATRIIDEVVNKFLDDLGNAKSHLMSLYSACSSEVPHGPVDQKFQSIVIGCALEDQKKIKRRLETLLRNIENSDKAIKLLEHSKGAGSKTLQQNAESRFN
# B4: sp¦Q9Y2Z0¦SGT1_HUMAN (protein, UniProt Q9Y2Z0 2-365, looked up)
# Protein SGT1 homolog: AAAAAGTATSQRFFQSFSDALIDEDPQAALEELTKALEQKPDDAQYYCQRAYCHILLGNYCVAVADAKKSLELNPNNSTAMLRKGICEYHEKNYAAALETFTEGQKLDIETGFHRVGQAGLQLLTSSDPPALDSQSAGITGADANFSVWIKRCQEAQNGSESEVWTHQSKIKYDWYQTESQVVITLMIKNVQKNDVNVEFSEKELSALVKLPSGEDYNLKLELLHPIIPEQSTFKVLSTKIEIKLKKPEAVRWEKLEGQGDVPTPKQFVADVKNLYPSSSPYTRNWDKLVGEIKEEEKNEKLEGDAALNRLFQQIYSDGSDEVKRAMNKSFMESGGTVLSTNWSDVGKRKVEINPPDDMEWKKY
# B5: sp¦P30533¦AMRP_HUMAN (protein, UniProt P30533 35-357, looked up)
# Alpha-2-macroglobulin …: YSREKNQPKPSPKRESGEEFRMEKLNQLWEKAQRLHLPPVRLAELHADLKIQERDELAWKKLKLDGLDEDGEKEARLIRNLNVILAKYGLDGKKDARQVTSNSLSGTQEDGLDDPRLEKLWHKAKTSGKFSGEELDKLWREFLHHKEKVHEYNVLLETLSRTEEIHENVISPSDLSDIKGSVLHSRHTELKEKLRSINQGLDRLRRVSHQGYSTEAEFEEPRVIDLWDLAQSANLTDKELEAFREELKHFEAKIEKHNHYQKQLEIAHEKLRHAESVGDGERVSRSREKHALLEGRTKELGYTVKKHLQDLSGRISRARHNEL
# B6: sp¦Q15370¦ELOB_HUMAN (protein, UniProt Q15370 1-118, looked up)
# Elongin-B: MDVFLMIRRHKTTIFTDAKESSTVFELKRIVEGILKRPPDEQRLYKDDQLLDDGKTLGECGFTSQTARPQAPATVGLAFRADDTFEALCIEPFSSPPELPDVMKPQDSGSSANEQAVQ
# B7: sp¦P37837¦TALDO_HUMAN (protein, UniProt P37837 1-337, looked up)
# Transaldolase: MSSSPVKRQRMESALDQLKQFTTVVADTGDFHAIDEYKPQDATTNPSLILAAAQMPAYQELVEEAIAYGRKLGGSQEDQIKNAIDKLFVLFGAEILKKIPGRVSTEVDARLSFDKDAMVARARRLIELYKEAGISKDRILIKLSSTWEGIQAGKELEEQHGIHCNMTLLFSFAQAVACAEAGVTLISPFVGRILDWHVANTDKKSYEPLEDPGVKSVTKIYNYYKKFSYKTIVMGASFRNTGEIKALAGCDFLTISPKLLGELLQDNAKLVPVLSAKAAQASDLEKIHLDEKSFRWLHNEDQMAVEKLSDGIRKFAADAVKLERMLTERMFNAENGK
# B8: sp¦Q9UK45¦LSM7_HUMAN (protein, UniProt Q9UK45 2-103, looked up)
# U6 snRNA-associated Sm-like …: ADKEKKKKESILDLSKYIDKTIRVKFQGGREASGILKGFDPLLNLVLDGTIEYMRDPDDQYKLTEDTRQLGLVVCRGTSVVLICPQDGMEAIPNPFIQQQDA
# B9: Gc-globulin (protein, UniProt P02774 17-474, looked up)
# Vitamin D-binding protein: LERGRDYEKNKVCKEFSHLGKEDFTSLSLVLYSRKFPSGTFEQVSQLVKEVVSLTEACCAEGADPDCYDTRTSALSAKSCESNSPFPVHPGTAECCTKEGLERKLCMAALKHQPQEFPTYVEPTNDEICEAFRKDPKEYANQFMWEYSTNYGQAPLSLLVSYTKSYLSMVGSCCTSASPTVCFLKERLQLKHLSLLTTLSNRVCSQYAAYGEKKSRLSNLIKLAQKVPTADLEDVLPLAEDITNILSKCCESASEDCMAKELPEHTVKLCDNLSTKNSKFEDCCQEKTAMDVFVCTYFMPAAQLPELPDVELPTNKDVCDPGNTKVMDKYTFELSRRTHLPEVFLSKVLEPTLKSLGECCDVEDSTTCFNAKGPLLKKELSSFIDKGQELCADYSENTFTEYKKKLAERLKAKLPDATPTELAKLVNKHSDFASNCCSINSPPLYCDSEIDAELKNIL
# B10: sp¦P21953¦ODBB_HUMAN (protein, UniProt P21953 51-392, looked up)
# 2-oxoisovalerate …: VAHFTFQPDPEPREYGQTQKMNLFQSVTSALDNSLAKDPTAVIFGEDVAFGGVFRCTVGLRDKYGKDRVFNTPLCEQGIVGFGIGIAVTGATAIAEIQFADYIFPAFDQIVNEAAKYRYRSGDLFNCGSLTIRSPWGCVGHGALYHSQSPEAFFAHCPGIKVVIPRSPFQAKGLLLSCIEDKNPCIFFEPKILYRAAAEEVPIEPYNIPLSQAEVIQEGSDVTLVAWGTQVHVIREVASMAKEKLGVSCEVIDLRTIIPWDVDTICKSVIKTGRLLISHEAPLTGGFASEISSTVQEECFLNLEAPISRVCGYDTPFPHIFEPFYIPDKWKCYDALRKMINY
# Tested on: human HL60 cells
# Experiment: SWATH-MS proteomics, differential protein representation, akirin2 KO vs WT HL60 cells
# Type: cell-based
# Conditions: SWATH-MS, akirin2 KO vs WT HL60 cells; over-represented in KO
# Procedure, shortened: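 Differential representation compares akirin2 KO with WT HL60 across three biological replicates, 5 µg digest each, acquired by data-independent SWATH on a 120-min gradient. Library built from combined IDA runs searched with Paragon; proteins accepted at 1% FDR, with total-area-sum normalization.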
Molecule,Fold Change,Log (Fold Change)
B1,1.544,0.1886
B2,1.59,0.2013
B3,1.58,0.1985
B4,1.579,0.1983
B5,1.604,0.2053
B6,1.578,0.1982
B7,1.543,0.1885
B8,1.561,0.1935
B9,5.464,0.7375
B10,1.558,0.1926
